From publication PMC3212559, “Large-Scale Protein-Protein Interaction Analysis in Arabidopsis Mesophyll Protoplasts by Split Firefly Luciferase Complementation” (PLoS ONE, 2011)

Experiments:
Experiment in all cases: split reporter (BiFC, NanoBiT); SFLC in living Arabidopsis mesophyll protoplasts: Aux/IAA-FLucN or MYB30-FLucN co-expressed with ARFCTD-FLucC or Aux/IAA-FLucC for 6 hr; 10 µg of each construct, 2×10^4 cells, 96-well plate, D-luciferin; relative activity standardised against ARF5CTD-FLucC + IAA28-FLucN
Details in all cases: partners not purified
[1] = target: T1, ARF10 C-terminal domain (CTD)-FLucC (Arabidopsis, UniProt Q9SKN5 580-693)
T1 construct: Arabidopsis auxin response factor 10, C-terminal dimerization domain (CTD); In the ARF-ARF tests the same CTD stood both as ARFCTD-FLucC and as ARFCTD-FLucN; one molecule for both; also called ARF10CTD-FLucC; ARFCTD-FLucC; source: Arabidopsis mesophyll protoplasts, transfected, in living cells (SFLC) and in lysate (co-IP); not shown: FLucC (firefly luciferase aa 394-550)
T1 sequence (looked up): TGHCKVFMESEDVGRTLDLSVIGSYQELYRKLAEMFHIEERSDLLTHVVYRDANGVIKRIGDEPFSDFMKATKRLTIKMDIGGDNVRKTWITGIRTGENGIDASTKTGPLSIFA

IAA14-FLucC = target: T2, IAA14-FLucC (Arabidopsis, UniProt Q38832 1-228)
T2 construct: Arabidopsis Aux/IAA protein IAA14; also called Aux/IAA-FLucC; source: Arabidopsis mesophyll protoplasts, transfected, in living cells; not shown: FLucC (firefly luciferase aa 394-550)
T2 sequence (looked up): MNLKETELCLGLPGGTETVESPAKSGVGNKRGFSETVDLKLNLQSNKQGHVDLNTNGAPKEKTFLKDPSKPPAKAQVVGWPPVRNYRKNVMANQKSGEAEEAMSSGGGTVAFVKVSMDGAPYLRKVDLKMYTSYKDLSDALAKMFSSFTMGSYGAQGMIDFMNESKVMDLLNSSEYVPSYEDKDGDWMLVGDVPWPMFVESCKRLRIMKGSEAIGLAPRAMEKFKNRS

[2] = target: T3, ARF9 C-terminal domain (CTD)-FLucC (Arabidopsis, UniProt Q9XED8 523-638)
T3 construct: Arabidopsis auxin response factor 9, C-terminal dimerization domain (CTD); In the ARF-ARF tests the same CTD stood both as ARFCTD-FLucC and as ARFCTD-FLucN; one molecule for both; also called ARF9CTD-FLucC; ARFCTD-FLucC; source: Arabidopsis mesophyll protoplasts, transfected, in living cells (SFLC) and in lysate (co-IP); not shown: FLucC (firefly luciferase aa 394-550)
T3 sequence (looked up): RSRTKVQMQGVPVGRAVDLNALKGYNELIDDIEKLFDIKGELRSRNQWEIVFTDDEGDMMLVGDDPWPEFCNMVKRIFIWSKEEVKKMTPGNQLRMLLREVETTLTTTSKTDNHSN

IAA1-FLucC = target: T4, IAA1-FLucC (Arabidopsis, UniProt P49677 1-168)
T4 construct: Arabidopsis Aux/IAA protein IAA1; also called Aux/IAA-FLucC; source: Arabidopsis mesophyll protoplasts, transfected, in living cells; not shown: FLucC (firefly luciferase aa 394-550)
T4 sequence (looked up): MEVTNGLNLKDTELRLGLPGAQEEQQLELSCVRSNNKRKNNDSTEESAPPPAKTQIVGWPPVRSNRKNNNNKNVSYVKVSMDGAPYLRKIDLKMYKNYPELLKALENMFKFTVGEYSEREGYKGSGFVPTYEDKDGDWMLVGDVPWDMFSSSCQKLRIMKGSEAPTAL

[3] = target: T5, C-terminal domain (CTD) of ARF5-FLucC (Arabidopsis, UniProt P93024 793-902)
T5 construct: In the ARF-ARF tests the same CTD stood both as ARFCTD-FLucC and as ARFCTD-FLucN; one molecule for both; also called ARF5CTD-FLucC; auxin response factor 5; source: Arabidopsis mesophyll protoplasts, transfected, in living cells (SFLC) and in lysate (co-IP); not shown: FLucC (firefly luciferase aa 394-550)
T5 sequence (looked up): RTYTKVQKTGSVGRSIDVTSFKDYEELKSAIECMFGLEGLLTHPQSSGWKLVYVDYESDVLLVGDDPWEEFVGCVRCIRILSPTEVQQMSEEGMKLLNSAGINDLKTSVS

IAA28-FLucC = target: T6, IAA28-FLucC (Arabidopsis, UniProt Q9XFM0 1-175)
T6 construct: Arabidopsis Aux/IAA protein IAA28; also called Aux/IAA-FLucC; source: Arabidopsis mesophyll protoplasts, transfected, in living cells; not shown: FLucC (firefly luciferase aa 394-550)
T6 sequence (looked up): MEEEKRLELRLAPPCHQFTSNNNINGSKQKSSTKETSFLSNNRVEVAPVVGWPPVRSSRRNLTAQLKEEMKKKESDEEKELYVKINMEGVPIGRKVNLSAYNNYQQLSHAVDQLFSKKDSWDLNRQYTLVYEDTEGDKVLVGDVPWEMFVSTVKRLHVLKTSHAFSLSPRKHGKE

Measured: relative luciferase activity (standardised against ARF5CTD-FLucC + IAA28-FLucN)

B1: MYB30-FLucN (natural protein, UniProt Q9SCU7 1-323, looked up)
chain: MVRPPCCDKGGVKKGPWTPEEDIILVTYIQEHGPGNWRAVPTNTGLLRCSKSCRLRWTNYLRPGIKRGNFTEHEEKMIVHLQALLGNRWAAIASYLPQRTDNDIKNYWNTHLKKKLNKVNQDSHQELDRSSLSSSPSSSSANSNSNISRGQWERRLQTDIHLAKKALSEALSPAVAPIITSTVTTTSSSAESRRSTSSASGFLRTQETSTTYASSTENIAKLLKGWVKNSPKTQNSADQIASTEVKEVIKSDDGKECAGAFQSFSEFDHSYQQAGVSPDHETKPDITGCCSNQSQWSLFEKWLFEDSGGQIGDILLDENTNFF
notes: transcription factor MYB30, the unrelated protein used as negative control; source: Arabidopsis mesophyll protoplasts, transfected, in living cells; not shown: FLucN (firefly luciferase aa 1-398)
< 0.1: all assays above
